These results are taken from doi:10.1101/2024.07.11.603087, “Rational Design of a Flavoenzyme for Aerobic Nicotine Catabolism” (bioRxiv, 2024).

The data set concerns the molecule itself. The data set is described as follows: SEC; Superdex 200 Increase 10/300 GL; molecular weight from elution, consistent with two molecules.

B1: PnaoΔN30 (residues 31 to 497) (enzyme, Pseudomonas putida S16, UniProt F8G0P1 31-496, looked up)
chain: IASQLLTLSAPAEAAVKTNVGPSRAGVGYDVIVIGGGFAGVTAAREASRSGLKTLILEGRSRLGGRTFTSKLQNQKVELGGTWVHWTQPNVWTEIMHYGLEVEETVGLANPETVIWVTEDNVKRAPAAEAFEIFGSACNEYYKEARNIYPRPFEPFFERKKLQHVDGLSAADYLEKLPLTREQKDMMDSWLSGNGHNYPETIAYSEIMRWFALSNFNMPTMFDSIARYKIKTGTHSLLEAIMADGNSEVKLSTPVTKVNQDKDKVTVTTEDGVFTASAVIVAVPINTLHDIEYSPKLSAAKVDMGSQRHAGAGVKGYIRVKQNVGNVMTYAPARNKLTPFTSVFTDHVDESGTLLIAFSADPKLIDINDIKAVEKALQPLLPGVEVTASYGYDWNLDPFSKGTWCTYRPNQTTRYLTELQKREGRLFFAGSDMANGWRGFIDGAIENGREVGHQVATYLKRENDNA
notes: Pnao, flavin-dependent pseudooxynicotine oxidase of Pseudomonas putida S16, N-terminal truncation of 30 residues, residues 31 to 497; Cloned into pET-28a between NcoI and XhoI, which would likely give a C-terminal His6 tag (surmised); also called pseudooxynicotine amine oxidase; source: E. coli BL21(DE3), purified (Ni2+-NTA, size-exclusion chromatography)
For the protein B1, the “stoichiometry N” value worked out at 2.
